Laboratory results: PMC3923242, “New function for Escherichia coli xanthosine phophorylase (xapA): genetic and biochemical evidences on its participation in NAD^+ salvage from nicotinamide” (BMC Microbiology, 2014)

Substrate: NC(=O)c1cccnc1
Experiment: purified protein
Type: biochemical, Escherichia coli
Conditions: 20 mM ribose-1-phosphate, 50 mM MES pH 6.0, 37 °C, 30 min, 0.1 mg/ml xapA, NR synthesis direction

B1: xanthosine phosphorylase (xapA; purine nucleoside phosphorylase II, PNP-II) (Escherichia coli K-12) (protein)
chain: MSQVQFSHNPLFCIDIIKTYKPDFTPRVAFILGSGLGALADQIENAVAISYEKLPGFPVSTVHGHAGELVLGHLQGVPVVCMKGRGHFYEGRGMTIMTDAIRTFKLLGCELLFCTNAAGSLRPEVGAGSLVALKDHINTMPGTPMVGLNDDRFGERFFSLANAYDAEYRALLQKVAKEEGFPLTEGVFVSYPGPNFETAAEIRMMQIIGGDVVGMSVVPEVISARHCDLKVVAVSAITNMAEGLSDVKLSHAQTLAAAELSKQNFINLICGFLRKIA
notes: ORF from E. coli genomic DNA in pET28a (EcoRI/HindIII), expressed in E. coli Rosetta (DE3), Ni-NTA purified (His-tag), tag removal not described
Km: 5.81 mM
